Test results as given in paper PMC2738593 (Nature methods, 2009).
Numbering of substitutions follows the chain as printed. Like-named read-outs stand apart in the source and are kept apart here.

B1: cysteine-less HCN2I fragment (carboxyl-terminal region of mouse HCN2, C-linker and CNBD, residues 443-640) (domain or fragment, UniProt O88703 443-640, looked up)
chain: DSSRRQYQEKYKQVEQYMSFHKLPADFRQKIHDYYEHRYQGKMFDEDSILGELNGPLREEIVNFNNRKLVASMPLFANADPNFVTAMLTKLKFEVFQPGDYIIREGTIGKKMYFIQHGVVSVLTKGNKEMKLSDGSYFGEISLLTRGRRTASVRADTYSRLYSLSVDNFNEVLEEYPMMRRAFETVAIDRLDRIGKKN
B2: wild-type mouse HCN2I construct (carboxyl-terminal fragment of HCN2, C-linker and CNBD, residues 443-640) (domain or fragment, UniProt O88703 443-640, looked up)
chain: B1 chain with N66C, S142C, S159C

What was measured:
crystal structure [1] = target: the molecule itself; assay: crystal structure
crystal structure [2] = target: the molecule itself; assay: crystal structure; remark: listed apart in the source

Row | Protein | stoichiometry N (crystal structure [1]) | stoichiometry N (crystal structure [2])
1 | B1 | 4 | 
2 | B2 |  | 4
